In IntAct's records for PubMed 37020021:

Target: T1, ncbp1_human NCBP1 (UniProt Q09161)
T1 sequence: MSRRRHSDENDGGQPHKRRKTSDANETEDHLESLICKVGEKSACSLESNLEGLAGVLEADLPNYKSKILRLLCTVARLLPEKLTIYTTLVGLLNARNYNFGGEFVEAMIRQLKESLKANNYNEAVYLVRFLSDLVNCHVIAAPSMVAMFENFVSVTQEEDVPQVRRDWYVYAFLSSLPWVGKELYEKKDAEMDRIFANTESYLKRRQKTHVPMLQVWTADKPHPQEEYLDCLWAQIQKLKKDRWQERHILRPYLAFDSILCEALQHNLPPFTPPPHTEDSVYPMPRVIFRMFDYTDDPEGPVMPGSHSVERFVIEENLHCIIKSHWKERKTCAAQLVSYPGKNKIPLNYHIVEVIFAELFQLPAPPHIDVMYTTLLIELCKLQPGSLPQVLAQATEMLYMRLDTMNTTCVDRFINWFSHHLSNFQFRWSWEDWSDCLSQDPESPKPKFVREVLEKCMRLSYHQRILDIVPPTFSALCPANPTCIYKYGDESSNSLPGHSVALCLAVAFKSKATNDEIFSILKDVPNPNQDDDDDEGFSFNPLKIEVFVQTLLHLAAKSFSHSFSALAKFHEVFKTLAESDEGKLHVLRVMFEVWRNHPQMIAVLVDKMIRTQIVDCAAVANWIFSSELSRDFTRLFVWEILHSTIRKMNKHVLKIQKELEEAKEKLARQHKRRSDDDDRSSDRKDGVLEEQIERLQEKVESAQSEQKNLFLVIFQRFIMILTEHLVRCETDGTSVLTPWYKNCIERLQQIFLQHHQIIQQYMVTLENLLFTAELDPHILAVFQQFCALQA

effect of a mutation on the interaction | Substance
decreasing interaction strength | THO complex subunit 4 (Homo sapiens) (from UniProt Q86V81) P170A
decreasing interaction strength | THO complex subunit 4 (Homo sapiens) (from UniProt Q86V81) Q165E
decreasing interaction strength | THO complex subunit 4 (Homo sapiens) (from UniProt Q86V81) F115S
decreasing interaction strength | THO complex subunit 4 (Homo sapiens) (from UniProt Q86V81) V169A
